Reference: the DeepSol protein solubility set

experiment: soluble on expression in E. coli; label from the status in PepcDB or PDB records

Row | Sequence | soluble on expression in E. coli
1 | MGGPEKNSTVPLPNKKRKKKTNKKKPTAPNTPTSPQAGEKNANLKNGTVTTNGSNHVERLAGRAVHSLSAIDYSGITNDVEAGGSFSLTDVFPTVIFMFVVLFCRWLNGFSQHRERLYKFEDEAVQRRRRFRVHSEESEELNDHESYSETDICTQLLASSADVTCHINVDLVNQNRFYFFVKQRNKKENSTNEEEEISSQEINTSTQNEETEVNLVFASAEDNGGVASNFDISDALMVTSNISEVSKLPETLCEEGETVQQKSVVNENDHSNEDDEQSLQSQDGSRCSDEDMNSCVSASDEEDVESQDDSFHVNDATEESIDSVSSIESQEAEESATEDLASCHSNDDKNEKDVLVDEDTSKYDNLPVEMRSAKEGEESEGTIDSSVSSSTSSSSTGDDGDDSATSYDSEDIEIQMFEYDLGTACASASISIPRPSIIPRNNKKTEVNANEERLDDLSVSPGRSDSPGGGGGGHSDSFQDPMDPGEQLGSDDEEQEDPRDYKRGGYHPVNIGDVFNARYHVIRKLGWGHFSTVWLAWDTQDKRFVAMKIVKSAEHYTEAALDEIKLLLSVRSADPNDIGCHKVVQLLDEFTVTGINGQHVAMVFEVLGCNLLKLIIRSNYRGLHLEQVRKICRQVLEALGYMHEKCGIIHTDIKPENVLITMSREEIKIMAQHAVVARKMNMKMSGSAVSTAPDHLVKMAQENMTKNKKKKMKKKAKKQREKLEAELAGLEGLKMDANGLQEAYNNAPELENFNASQVEDVTMEDTVNENGNRNKVEIRSPDRFDRTTLTPFSDPESKFGDLASPSAEYLSSPMSQLPPGGILPAPPVGPNIGDPYCDIDVKIADLGNACWVNHHYTDDIQTRQYRALEVLIGSGYGPPADIWSTACMAFELATGDYLFEPHQGDNYSRDEDHLAHISELLGAIPPSIYKKGKHWREFFHKNGHLLHIHQLKPWSLYEVLRQKYEWSHEDAQQFESFLRPMLDFDQEKRSTAKIALKHPFLLPFGGRAPKSDCPPELLSKMFPDGLIPEPFDGNEHQEVYRDENDSRSASERSANSRSAGGSDDDDEEEFNMNRPGPSGHFPIFCSRVFTFMF | soluble
2 | MSLVWTKTTYMGINCWKSVSDMWNYQEILSELQPSLVIEFGTRYGGSAVYFANIMRQIGQPFKVLTVDNSHKALDPRARREPDVLFVESSSTDPAIAEQIQRLKNEYPGKIFAILDSDHSMNHVLAEMKLLRPLLSAGDYLVVEDSNINGHPVLPGFGPGPYEAIEAYEDEFPNEGHHHHHH | not soluble
3 | SLYIEMVDETGQVSKEMLQQTQEILEFAAQKLGKEDKEMAVTFVTNERSHELNLEYRDTDRPTDVISLEYKPELEIAFDEEDLLENPELAEMMSEFDAYIGELFISIDKAHEQAEEYGHSFEREMGFLAVHGFLHINGYDHYTPEEEAEMFGLQEEILTAYGLTRQ | soluble
4 | MSHQCSLSELNENLVPFTARQIKSSLIWCAEDVRNPDELQNACSYIIDPGSTASAKVFHAERYGGSGIQRNGGGARCGFDGNYQVKGIGSNPLVGEGTDERHSNGALGAVHAIYEALWGEVLAQILPYSAVRVRAVLLTDLYTEKAFERSGRKSRRALLVREPVVRPAHFERAPYFQVKPEYSSLLIHDACRVRSVIHKLPGYLPVPPEEIDAEARTDPRIYCIEGLCELARREAWQMAFCRTRFLRLTTSPSNIAMDGRLMDFNGLSCLFPGDSPADFGYKLRLAELAKEPMVLMQGLSDLCLYIGKYMFDPDFTLAARLKVEEIFQKTFHEACYYCYLELLGIPGEFITQKEIPDILKELVNSFVALLNKYYEKSHAQDIVNQDGSPLQKLVVTLIHHRHNQKQALNSSIKNDVYFTVAQQCFSQAIHWLTQGSTRRQINASLLLKEIEHHTMKRLQPREELRKENMCEKIAILLDNHGDDPLFLQEAISDMKNFMLKFSRDAFGYLEPIRNTV | not soluble
5 | MAASKKAVLGPLVGAVDQGTSSTRFLVFNSKTAELLSHHQVEIKQEFPREGWVEQDPKEILHSVYECIEKTCEKLGQLKIDISNIKAIGVSNQRETTVVWDKITGEPLYNAVVWLDLRTQSTVESLSKRITGNNNFVKSKTGLPLSTYFSAVKLRWLLDNVRKVQKAVEEKRALFGTIDSWLIWSLTGGVNGGVHCTDVTNASRTMLFNIHSLEWDKQLCEFFGIPMEILPNVRSSSEIYGLMKISHSVKAGALEGVPISGCLGDQSAALVGQMCFQIGQAKNTYGTGCFLLCNTGHKCVFSDHGLLTTVAYKLGRDKPVYYALEGSVAIAGAVIRWLRDNLGIIKTSEEIEKLAKEVGTSYGCYFVPAFSGLYAPYWEPSARGIICGLTQFTNKCHIAFAALEAVCFQTREILDAMNRDCGIPLSHLQVDGGMTSNKILMQLQADILYIPVVKPSMPETTALGAAMAAGAAEGVGVWSLEPEDLSAVTMERFEPQINAEESEIRYSTWKKAVMKSMGWVTTQSPESGIP | not soluble
